From patent US20210070885A1 (published 2021)

target: HER2m2-Fc (UniProt P04626 23-652); assay: ELISA

Binder | EC50 [µg/mL]
Pmab-CLC2 (antibody, V domains shown) VH: EVQLVESGGGLVQPGGSLRLSCAASGFTFTDYTMDWVRQAPGKGLEWVADVNPNSGGSIYNQRFKGRFTLSVDRSKNTLYLQMNSLRAEDTAVYYCARNLGPSFYFDYWGQGTLVTVSS VL: not shown | 0.598
Pmab-CLC6 (antibody, V domains shown) VH: EVQLVESGGGLVQPGGSLRLSCAASGFTFTDYTMDWVRQAPGKGLEWVADVNPNSGGSIYNQRFKGRFTLSVDRSKNTLYLQMNSLRAEDTAVYYCARNLGPSFYFDYWGQGTLVTVSS VL: DIQMTQSPSSLSASVGDRVTITCKASQDVSIGVAWYQQKPGKAPKLLIYSASYRYTGVPSRFSGSGSGTDFTLTISSLQPEDFATYYCQQYYITPYTFGQGTKVEIKR | 0.393
Pmab-CLC3 (antibody, V domains shown) VH: EVQLVESGGGLVQPGGSLRLSCAASGFTFTDYTMDWVRQAPGKGLEWVADVNPNSGGSIYNQRFKGRFTLSVDRSKNTLYLQMNSLRAEDTAVYYCARNLGPSFYFDYWGQGTLVTVSS VL: not shown | 0.49
Pmab-CLC4 (antibody, V domains shown) VH: EVQLVESGGGLVQPGGSLRLSCAASGFTFTDYTMDWVRQAPGKGLEWVADVNPNSGGSIYNQRFKGRFTLSVDRSKNTLYLQMNSLRAEDTAVYYCARNLGPSFYFDYWGQGTLVTVSS VL: not shown | 0.479

target: HER2m1-Fc (UniProt P04626 23-652); assay: ELISA

Binder | EC50 [µg/mL]
Tmab-CLC5 (antibody, V domains shown) VH: not shown VL: DIQMTQSPSSLSASVGDRVTITCKASQDVSIGVAWYQQKPGKAPKLLIYSASYRYTGVPSRFSGSGSGTDFTLTISSLQPEDFATYYCQQYYIYPYTFGQGTKVEIKR | 0.616
Tmab-CLC6 (antibody, V domains shown) VH: not shown VL: DIQMTQSPSSLSASVGDRVTITCKASQDVSIGVAWYQQKPGKAPKLLIYSASYRYTGVPSRFSGSGSGTDFTLTISSLQPEDFATYYCQQYYITPYTFGQGTKVEIKR | 1.1
